From patent US20260217864A1 (JANUX THERAPEUTICS, published 2026) come the findings set out here.

Substitutions are numbered along the chain they refer to.

What all share (experiment): cell-based or functional assay
Experiment [1] deals with T1, six-transmembrane epithelial antigen of the prostate-1 (STEAP-1) (UniProt Q9UHE8 1-339, limits assumed).
The target in experiment [2] is T1, six-transmembrane epithelial antigen of …. The source holds these as a separate data set.
Experiment [3] has the same target. This is another data set of the same source.
Experiment [4] has the same target. This is another data set of the same source.
Experiment [5] has the same target. This is another data set of the same source.

T1 sequence (Q9UHE8 whole entry): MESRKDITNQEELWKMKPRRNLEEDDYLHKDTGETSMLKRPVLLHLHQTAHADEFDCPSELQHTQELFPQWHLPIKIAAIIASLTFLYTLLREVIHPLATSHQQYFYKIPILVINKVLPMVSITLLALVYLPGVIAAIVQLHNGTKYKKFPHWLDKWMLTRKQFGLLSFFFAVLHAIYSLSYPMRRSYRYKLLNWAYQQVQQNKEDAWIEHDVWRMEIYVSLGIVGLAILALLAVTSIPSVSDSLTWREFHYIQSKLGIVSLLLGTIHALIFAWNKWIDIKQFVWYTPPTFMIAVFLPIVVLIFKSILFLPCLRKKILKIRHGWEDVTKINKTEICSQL

B1: TCE-76 (bispecific antibody)
light: not shown
heavy: QVQLVQSGAEVKKPGASVKVSCKASGYTFSTYWIEWVRQAPGQRLEWMGEILPGSGQTDFNEKFQGRVTFTADTSSDTAYMELSSLRSEDTAVYYCTRWGYYGTRGYFNVWGQGTLVTVSSASTKGPSVFPLAPSSKSTSGGTAALGCLVKDYFPEPVTVSWNSGALTSGVHTFPAVLQSSGLYSLSSVVTVPSSSLGTQTYICNVNHKPSNTKVDKKVEPKSC
As for B1, the “Cell line cytotoxicity EC50 (pM), LNCaP” value in experiment [1] stood at 7.9 pM.

B2: TCE-69 (bispecific antibody)
light: DIQMTQSPSSLSASVGDRVTITCKSSQSLLYRSNQKNYLAWYQQKPGKAPKLLIYWASTRESGVPSRFSGSGSGTDFTLTISSLQPEDFATYYCQQYYNYPRTFGQGTKVEIKRTVAAPSVFIFPPSDRKLKSGTASVVCLLNNFYPREAKVQWKVDNALQSGNSQESVTEQDSKDSTYSLSSTLTLSKADYEKHKVYACEVTHQGLSSPVTKSFNRGEC
chain: not shown
heavy: not shown
Take B2: in experiment [1], the “Cell line cytotoxicity EC50 (pM), 22RV1” value stood at 359 pM; the “Cell line cytotoxicity EC50 (pM), IM-95” value was determined as 11.2 pM; the “Cell line cytotoxicity EC50 (pM), LNCaP” value turned out to be 89.1 pM.

B3: TCE-75 (bispecific antibody)
light: EIVLTQSPATLSLSPGERATLSCRASSSVSYMHWFQQKPGQAPRLLIYSTSNLASGIPARFSGSGSGTDYTLTISSLEPEDFAVYYCQQRRSFPYTFGQGTKLEIKRTVAAPSVFIFPPSDEQLKSGTASVVCLLNNFYPREAKVQWKVDNALQSGNSQESVTEQDSKDSTYSLSSTLTLSKADYEKHKVYACEVTHQGLSSPVTKSFNRGEC
heavy: not shown
With B3, the “Cell line cytotoxicity EC50 (pM), LNCaP” value in experiment [1] worked out at 5.2 pM.

B4: TCE-4 (bispecific antibody)
light: not shown
heavy: EVQLVESGGGLVQPGGSLRLSCAASGFSITSDYAWNWVRQAPGKGLEWVGYISNSGSISYNPSLKSRFTISRDNSKNTLYLQMNSLRAEDTAVYYCARERNYDYDDYYYAMDYWGQGTLVTVSSASTKGPSVFPLAPSSKSTSGGTAALGCLVKDYFPEPVTVSWNSGALTSGVHTFPAVLQSSGLYSLSSVVTVPSSSLGTQTYICNVNHKPSNTKVDKKVEPKSC
Consider B4, for which the “IC50 (pM), LNCaP tumor cell killing in the presence of CD8+ T cells” value in experiment [2] is 1710 pM. Further, the “IC50 (pM), VCaP tumor cell killing in the presence of CD8+ T cells” value in experiment [3] was greater than 10000 pM. In addition, the “IC50 (pM), 22Rv1 tumor cell killing in the presence of CD8+ T cells” value in experiment [4] is greater than 10000 pM. In experiment [1], the “Cell line cytotoxicity EC50 (pM), 22RV1” value was greater than 10000 pM; the “Cell line cytotoxicity EC50 (pM), IM-95” value was 648 pM; the “Cell line cytotoxicity EC50 (pM), LNCaP” value was determined as 2220 pM; the “Cell line cytotoxicity EC50 (pM), VCaP” value is greater than 10000 pM.

B5: TCE-55 (bispecific antibody)
light: not shown
heavy: B4 heavy with A24V, F27Y, I58T, N74T
As to B5, in experiment [5], the “EC50/pM, LNCaP tumor cell killing” value amounted to 1310 pM. Also, the “Cell line cytotoxicity EC50 (pM), LNCaP” value in experiment [1] is 1310 pM.

B6: TCE-58 (bispecific antibody)
light: not shown
heavy: B4 heavy with A24V, F27Y, I58T, N74T
With B6, the “EC50/pM, LNCaP tumor cell killing” value in experiment [5] was 45 pM. Further, in experiment [1], the “Cell line cytotoxicity EC50 (pM), 22RV1” value came to 332 pM and the “Cell line cytotoxicity EC50 (pM), LNCaP” value worked out at 44.5 pM.
